B1: TPR t1 (parent)
chain: GACCAAUCUGCCCUCAGAGCUCGAGAACAUCUUCGGAUGCAGAGGAGGCAGGCUUCGGUGGCGCGAUAGCGCCAACGUCCUCAACCUCCAAUGCAUCCCACCACAUGAUGAUGCCUGAAGAGCCUUGGUUUUUUG

Variants of: B1
Test: polymerase ribozyme fitness, log enrichment relative to wild type (log ratio); higher = more active; in vitro selection for triplet polymerase activity
How it was run: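 A single round of triplicate in vitro selection, including frozen incubation at −7 °C, was applied to PCR-built, transcribed mutant libraries of each subunit of a heterodimeric triplet polymerase ribozyme. Illumina sequencing of input and output libraries retained genotypes with ≥10 input reads and ≥1 read per output. Fitness is the base-2 logarithm of genotype enrichment divided by wild-type enrichment, from inverse-variance-weighted replicate averages.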

Going from GACCAAUUUGCCCUCAGAGCUCGAGAACAUCUUCGGGUGCAGAGGAGGCAGGCUUUGGUGGCGCGAUAGCGCGAACGUCCUCAACCUCCAAUGCAUCCCACCACAUGAUUAUGCCUGAUGAGCCUUGGUUUUUUG to GACCAAUUUGCCCUCAGAGCUCGAGAACAUCUUCGGAUGCAGAGGCGGCAGGCUUCGGUGGCUCGAUAGCGCCAACGUCCUCAACCUCCAAUGCAUCCCACCACACGAUGAUGCCUGAAGAGCCUUGGUUUUUUG, the “polymerase ribozyme fitness (log ratio)” value rises from -3.74 to -1.81.

First: GACCAAUUUGCCAUCAGAGCUCGAGAACAUCUUCGGUUGCAGAGGAAGCAGGCUUCGGUGGUGCGAUAGCGCCAACGUCCUCAACCUCCAAUGCAUCCCACCACAUGAUGAUGCCUGAAGAACCUUGGUUUUUUG
Second: GACCAAUUUGCCCUCAGAGCUCGAGAACAUCUUCGGAUGCCGAGGAGGCAGGCUUCGGUGGCGCGAUAGCGCCAACGUCCUCAACCUCCACUGCAUCCCACCACAUGAUGAUGCCUGAAGAGUCUUGGUUUUUUG
The “polymerase ribozyme fitness (log ratio)” value of the first is lower: -1.54 for the first, 0.0486 for the second.

Going from GACCAAUUUGCCCUCAGAGCUCGAGAACAUCUUCGGAUGCAGAGGAGGCGGGCUUCGGUGGCGCGAUAGCGGCAACGUCCUCAACCUCCAAUGCAUCCCACCACAUGAUGAUGCCUGAAGAGCCUUGGUUUUUUG to GACCAAUUUGCCCUCAGAGCUCGAGAACAUCUUCGGAUGCAGAGGGGCCAGGCUUCGGUGGCGCGAUAGCGGCAACGUCUUCAACCUCCAAUGCAUCCCACCACCUGAUGAUGCCUGAAGAACCUUGGUUUUUUG, the “polymerase ribozyme fitness (log ratio)” value falls from -0.53 to -5.9.

First: GACCAAUGUGCCCUCAGAGCUCGAGAACAUCUUCGGAUGCAGAGGAGGCAGGCUUCGGUGGCGCGAUAGCGCCAACGUCCUCAACCUCCAAUGCAUCCCACCACAUGAUGAUGCCCGAAGAGCCUUGGUUUUUUG
Second: GACCAAUUUGCCCUCAGAGCUCGAGAACAUCUUCGGAUGCAGAGGAGGCAGGCUUCGGUGGCGCGAUAGCGCCAACGUCCUCAACCUCCAAUGCAUCCCACCUCAUGAUGAUGCGUGAAGAGCCUUGGUUUUUUG
The “polymerase ribozyme fitness (log ratio)” value of the first is higher: -0.0708 for the first, -5.83 for the second.

First: GACCAAUUUGCCCUCAGAGCUCGAGAACUUCUUCGGUUGCAGAGGAGGCAGGCUUCGGUGGCGCGAUAGCGCCAACGUCCUCAACCUCCAAUGCAUCCCACCACAUGAUGAUGCCCGAAGAGCCUUGGUUUUUUG
Second: GACCAAUGUGCCCUCAGAGCUCGAGAACAUCUUCGGAUGCAGAGGAGGCAGGCGUCGGUGGCGCGAUAGCGCCAACGUCCUCAACCUCCAAUGCAUCCCACCACAUGAUGAUGCCUGAAGAGCCUUGGUUUUUUG
The “polymerase ribozyme fitness (log ratio)” value of the first is lower: -2.24 for the first, 0.644 for the second.

Compared with GACCAAUGUGCCCUCAGAGCUCGAGAACAUCUUCGGAUGCAGAGGAGGCAGGCUUCGGUGGCGCGAUAGCGCCAACGACCUCAACCUCCAAUGCAUCCCACCACAUGAUGAUUCAUGAACAGCCUUGGUUUUUUG, GACCAAUUUGCCCUCAGAGCUCGAGUACAUCUUCGGAUGCAGAGGAGGGAGGCUUCGGUGGCGCGAUAGCGCCAACGUUCUCAACCUCCAAUACAUCCCACCACAUGAUGAUGCCUGAAGAGCCUUGGUUUUUUG is lower in “polymerase ribozyme fitness (log ratio)” value: -2.48 for the first, -4.36 for the second.

First: GACCAAUUUGCCCUCAGAGCUCGAGAACAUCUUCGGAUGCAGAGGAGGCUGGCUUCGGUGGCGCGAUAGCGCCAUCGUCCUCAACCUCCAAUGCAUCCCACCACAUGAUGAUGCCUGAAGAGCCUUGGUAUUUUG
Second: GACCAAUGUGCCCCCAGAGCUCGAGAACAUCUUCGGAUGCAGAGGAGGCAGGCUUCGGUGGCGCGAUAGCGCCAACGUUCUCAACCACCAAUGCAUCCCACCACAUGAUGAAGCCUGAAGAGCCUUGGUUUUUUG
The “polymerase ribozyme fitness (log ratio)” value of the first is lower: -1.78 for the first, 2.12 for the second.

Going from GACCAAUGGGCCCUCAGAGCUCGAGAACAUCUUCGGAUGCAGAGGAGGCAGGCUUCGGUGGCGCGAUAGAGCCAACGUCCUCAACCUCCAAUGCAUCCCACCACAUGAUGAUGCCUGAAGAGCCUUGGUUUUUUG to GACCAAUUUGCCCUCAGAGCUCGAGGACAUCUUCGGAUGCAGAGGAGGUAGGCUUCCGUGGCGCGAUAGCGCCAACGUCCUCAACCUCCAAUGCAUCCCACCACAUGAUGAAGCCUGAAGAGCCUUGGUUUUUUG, the “polymerase ribozyme fitness (log ratio)” value rises from -1.19 to -0.963.

Compared with GACCAAUUUGCCCUCAGAGCUCGAGAACAUCUUCGGAUGCAGAGGAGGCGGGCUUCGGUGGCGCGAUAGCGCCAACGACCUCAAACUCCAAUGCAUCCCACCACAUGAUGAUGCCUGAAGAGCCUUGGUUUUUUG, GACCAAUGUGCCCUCAGAGCUCGAGAACAUCUUCGGAUGCAGAGGAGGCAGGCUUCGGUGGCGCGAUAGCGCCAACGUCCUCAACCCCCAAUGCAUCCCACCACCUGAUGAUGCCUGAAGAGCGUUGGUUUUUUG is higher in “polymerase ribozyme fitness (log ratio)” value: -0.938 for the first, 0.541 for the second.

Compared with GACCAAUGUGCCCUCAGAGCUCGAGAACAUCUUCGGAUGCAGAGGAGGCAGGCUUCGGUGGCGCGAUAGCGCCAACGUCCUCAACCUCCAAUGCAUCCCACCACAUGAUGAUGCCUGAAGAGCCAUGGUUUUUUG, GACCAAUGUGCCCUCAGAGCUCGAGAACAUCUUCGGAUGCAGAGGAGGCAGGCUUCGGUGGCGCGAUAGCGCCAACGCCCUCAACCUCCAAUGCAUCCCACCACCUGAUGAUGCCUGAAGAGCCUUGGUUUUUUG is lower in “polymerase ribozyme fitness (log ratio)” value: 0.0447 for the first, -2.32 for the second.

First: GACCAAUGUGCCCCCAGAGCUCGAGAACAUCUUCGGAUCCAGAGGAGGCAGGCUUCGGUGGCGCGAUAGCGCCAACGUCCUCAACCUCCAAUGCAUCCCCCCACAUGAUGAUGCCUGAAGAGCCUUGGUUUUUUG
Second: GACCAAUUUGCCAUCAGAGCUCGAGAACAUCUUCGGAUGCAGAGGAGGCAGGCUUCGGUGGCGCGAUAGCUCCAACGUUCUCAACCUCCAAUGCAUCCCACCACAUGAUGAUGCCUGAAGAGCCUUGGUUUUUUG
The “polymerase ribozyme fitness (log ratio)” value of the first is higher: -0.867 for the first, -1.19 for the second.

Going from GACCAAUUUGCCCUCAGAGCUCGGGAACAUCUUCGAAUGCAGAUGAGGCAGGCUUCGGUGGCGCGAUAGCGUCAACGUCCUCAACCUCCAAUGCAUCCCACCACAUGAUGAUGCCUGAAGAGCCUUGGUUUUUUG to GACCAAUUUGCCCUCAGAGCUCGAGAACCUCUUCGGAUGCAGAGGAGGCAGGCUAGGGUGGCGCGAUAGCGCCAACGUCCUCAACCUACAAUGCAUCCCACCACAUGAUGAAGCCUGAAGAGCCUUGGUCUUUUG, the “polymerase ribozyme fitness (log ratio)” value falls from -2.98 to -3.36.

Going from GACCAAUUUGCCAUCAGAGCUCGAGAACAUCUUCGGAUGCAGAUGAGGCAGGCUUCGGUGGCGCGAUAGCGACAACGUUCUCAAACUCCAAUGCAUCCCACCACAUGAUGAUGCCUGAAGAGCCUUGGUUUUUUG to GACCAAUUUGCCCUCUGAGCUCGAGAACAUCUUCGGAUGCAGAGGAGGCAGGCUUCGGUGGCGCGAUAGCGCCAACUUCCUCAACCUCCAAUGCAUCCCACCACAUGAUGAUGCCUGAAGAGUCUUGGUUUUUUG, the “polymerase ribozyme fitness (log ratio)” value rises from -3.38 to 0.933.

Compared with GACCAAUUUGUCCUCAGAGCUCGAGAACAUCUUCGGAUGCAGAGGAGGCUGGCUUCGGUGGCGCGAUAGCGCCAACGUCCUCAACCUCCAAUGCAUCCCACCACAUGAUGAUGCCUGAAGAGCCUUGGUUUUUUG, GACCAAUUUGCCCUCAGAGCUCGAGAACAUCUUCGGAUGCAGAGGAGGCAGGCUUCGGUGGCGCGAUAGCGCCAACGUCCUCACCCUCCAAUGCAUCCCACCACAUGAUGAUGCCUAAAGAGCCUUGGUUUUUUG is higher in “polymerase ribozyme fitness (log ratio)” value: -1.25 for the first, -0.216 for the second.

Going from GACCAAUUUGCCCUCAGUGAUCGAGAACAUCUUCGGAUGCAGAGGAGGCAGGCUUCGGUGGCGCGAUAGCGCCAACGUCCUCAACCUCCAAUGCUUCCCACCACAUGAUGAUGCCUAAAGAGCCUUGGUUUUUUG to GACCAAUUUGCCCUCAGAGCUCGAGUACAUCUUCGGAUGCAGAGGAGGCAGGCUUCGGUGGUGCGAUAGCGCCAACGUCCUCAACCUCCAAUACAUCCCACCACAUGAUGAUGCCUGAAGAGCCUUGGUUUUUUG, the “polymerase ribozyme fitness (log ratio)” value rises from -3.83 to -2.86.

Compared with GACCAAUUUGCCCUCAGAGCUCGAGAACAUCUUCGGAUGCAGAGGUGGCAGGCUUCGGUGGCGCGAUAGUGCCAACGUCCUCAACCUCCAAUGCAUCCCACCACAUGAUGAUGCCUGAAGAUCCUUGGUUUUUUG, GACCAAUUUGCCCUCAGAGCUCGAGUACAUCUUCGGAUGCAGAGGAGGCAGGCUUCGGUGGCGCGAUAGCGCCAACGUCCUCAACCUCCAAUGCAUCCCACCACAUGAUGAUGCCUGAAGAGCCUUGGUUUUUUG is lower in “polymerase ribozyme fitness (log ratio)” value: -0.612 for the first, -2.13 for the second.

First: GACCAAUUUGCGCUCAGAGCUCGAGAACAUCUUCGGAUGCAGAGGAGGCAGGCUUCGGUGGCGCGAUACCGCCAACGUCCUCAACCUCCAAUGCAUCCCACCACAUGAUGAUGCCUGAAGAGCCUUGGUUUUUUG
Second: GACCAAUGUGCCCUCAGAGCUCGAGAACAUCUUCGGAUGCAGAGGAGGCAGGCUUCGGUGGCGCGAUAGCGCCAACGUCCUCAACCUCCAAUGCAUCCCACCACAUGAUGAUGCCUGAAGAGCCUCGGUUUUUUG
The “polymerase ribozyme fitness (log ratio)” value of the first is lower: -1.06 for the first, -0.307 for the second.

Compared with GACCAAUUUGCCCUCAGAGCUCGAGAUCAUCUUCGGAUGCAGAGGAGGCAGGCUUCGGUGGCGCGAUAGCGCCAACGUCCUCAACCUCCAAUGCAUCCCACCACAUGAUGAUGCCUGAAGAGCCUUGGUUUUUUG, GACCAAUGUGCCCGCAGAGCUCGAGAACAUCUUCGGAUGCAGCGGAUGCAGGCUUCGGUGGCGCGAUAGCGCCAACGUCCUGAACCUCCAAUGCAUCCCACCACAUGAUGAUGCCUGAAGAGCCUUGGUUUUAUG is lower in “polymerase ribozyme fitness (log ratio)” value: -1.79 for the first, -3.36 for the second.

First: GACCAAUUUGCCAUCAGAGCUCGAUAACAUCUUCGGAUACAGAGGAUGCAGGCUUCGGUGGCCCGAUAGCGCCAACGUCCUCAACCUCCAAUGCAUCCCACCACAUGAUGAUGCCUCAACAGCCUUGGUUUUUUG
Second: GACCAAUUUGCCCUCAGAGCUCGAGACCAUCUUCGGAUGCAGAGGAGGCAGGCUUCGGUGGCCCGAUAGCGCCAACGUACUCAACCUCCAAUGCAUCCCACCACAUGAUGAUGCCUGAGGAGCCUUGGUUUUUUG
The “polymerase ribozyme fitness (log ratio)” value of the first is lower: -7.2 for the first, -4.92 for the second.

First: GACCAAUGUGCCCUCAGAGCUCGAGAACAUCAUCGGAUGCAGUGGAUGCAGCCUUCGGUGGCGCGAUAGCGCCAACGUCCUCAACAUCCAAUGCAACCCACCACAUGAUGAUGCCUGAAGAGCCUUGGUUUUUUG
Second: GACCAAUUUGCCCUCAGAGCUCGAGAACAUCUUCGGAUGCAGGGGAGUCAGGCUUCGGUGGCGCGAUAGCGCCAACGUCCUCAACCUCCAAUGCAUCCCAACACAUGAUGAUGCCUGAAGAGCCUUGGUUUUUUG
The “polymerase ribozyme fitness (log ratio)” value of the first is lower: -6.26 for the first, -3.37 for the second.

Compared with GACCAAUUUGUCCUCAGAGCUCGAGAACAUCUUCGGAUGCAGAGGAGGCAGGCUUCGGUGGCGCGAUAGUGCUAACGUCCUCAACCUCCAAUGCAUCCCACAACAUGAUGAUGCCUGAAGAGCCUUGGUUUUUUG, GACCAAUUUGCCCUCAGAGCUCGAGAACAUCUUCGGCUGCAGAGGAGGCAGGUUUCGGUGGCGCGAUAGCGCCAACGUCCUCAACCUCCAAUGCAUCCCACCACAUGAUGAUGCCUGAAGAGCCUUGGUUUUUUG is higher in “polymerase ribozyme fitness (log ratio)” value: -3.01 for the first, 0.264 for the second.
